Square brackets hold non-standard residues; d marks the D form. pY = N[C@@H](Cc1ccc(OP(=O)(O)O)cc1)C(=O)O; Ahx = NCCCCCC(=O)O
What was measured:
[1] = biological target: T1, Crk SH2 domain with an N-terminal cysteine (cys-SH2), conjugated to iron oxide nanoparticles (SH2 TSACs) (UniProt P46108 13-118, limits assumed, N-terminal cysteine added by genetic modification and conjugated to aminated nanoparticles through NHS-PEO12-maleimide); test: DLS of nanoparticle assembly
T1 construct: domain: SH2 domain; also called cysteine-SH2; Crk-SH2 TSACs
T1 sequence (P46108 13-118 limits assumed): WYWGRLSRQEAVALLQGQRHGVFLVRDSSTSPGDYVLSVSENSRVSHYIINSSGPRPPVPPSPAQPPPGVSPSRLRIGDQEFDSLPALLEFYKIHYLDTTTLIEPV

[2] = biological target: T1, Crk SH2 domain with an N-terminal …; test: DLS of nanoparticle assembly in the presence of Abl kinase

Row | Binder | binding result [1] | binding result [2]
1 | {TAMRA-Ahx}-EAI[pY]AAPFAKKKC-NH2 (not fully specified (residue 13); also: Cys conjugated to nanoparticle via NHS-PEO12-maleimide) [TAMRA-(Ahx)EAIpYAAPFAKKKC-CONH2 (non-binding Abl substrate, phosphorylated) on nanoparticles] | no binding (tested: 10 µg Fe/ml (12 nM TSAC concentration)) | 
2 | {TAMRA-Ahx}-SRVGEEEHVFSFPNKQKSAEC-NH2 (not fully specified (residue 21); printed as TAMRA-(Ahx)SRVGEEEHVFSFPNKQKSAEC-CONH2; also: Cys conjugated to nanoparticle via NHS-PEO12-maleimide, also called phenylalanine-Abl substrate TSACs; phenylalanine substrate TSACs) |  | no binding (tested: 10 µg Fe/ml (12 nM TSAC concentration))

— US20090246142A1 (published 2009)
